How the values were obtained:
Experiment in all cases: split reporter
[1] = biological target: NRT2.1 S501A, rBiFC fusion (Arabidopsis thaliana, UniProt O82811 1-530, S501A)
[2] = biological target: NRT2.1 S501D, rBiFC fusion (Arabidopsis thaliana, UniProt O82811 1-530, S501D)
[3] = biological target: NRT2.1 wild type, rBiFC fusion (Arabidopsis thaliana, UniProt O82811 1-530)
Sequence of NRT2.1 wild type, rBiFC fusion (O82811 whole entry, the tested form may be a part): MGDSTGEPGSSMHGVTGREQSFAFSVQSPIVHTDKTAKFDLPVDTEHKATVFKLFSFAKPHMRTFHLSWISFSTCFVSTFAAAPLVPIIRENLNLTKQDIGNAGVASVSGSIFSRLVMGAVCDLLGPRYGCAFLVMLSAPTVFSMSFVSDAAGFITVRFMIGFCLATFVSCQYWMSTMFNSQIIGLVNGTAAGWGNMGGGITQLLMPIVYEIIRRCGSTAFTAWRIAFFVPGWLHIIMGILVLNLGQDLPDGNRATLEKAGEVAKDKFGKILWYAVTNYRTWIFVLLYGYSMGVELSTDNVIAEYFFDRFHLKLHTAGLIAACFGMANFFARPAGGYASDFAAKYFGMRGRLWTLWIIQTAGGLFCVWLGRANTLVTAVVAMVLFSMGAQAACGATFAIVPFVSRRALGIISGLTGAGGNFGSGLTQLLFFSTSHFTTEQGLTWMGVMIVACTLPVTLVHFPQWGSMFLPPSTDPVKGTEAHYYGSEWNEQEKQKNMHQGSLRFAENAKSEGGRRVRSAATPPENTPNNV

Sequence of NRT2.1 S501A, rBiFC fusion (O82811 whole entry S501A, the tested form may be a part): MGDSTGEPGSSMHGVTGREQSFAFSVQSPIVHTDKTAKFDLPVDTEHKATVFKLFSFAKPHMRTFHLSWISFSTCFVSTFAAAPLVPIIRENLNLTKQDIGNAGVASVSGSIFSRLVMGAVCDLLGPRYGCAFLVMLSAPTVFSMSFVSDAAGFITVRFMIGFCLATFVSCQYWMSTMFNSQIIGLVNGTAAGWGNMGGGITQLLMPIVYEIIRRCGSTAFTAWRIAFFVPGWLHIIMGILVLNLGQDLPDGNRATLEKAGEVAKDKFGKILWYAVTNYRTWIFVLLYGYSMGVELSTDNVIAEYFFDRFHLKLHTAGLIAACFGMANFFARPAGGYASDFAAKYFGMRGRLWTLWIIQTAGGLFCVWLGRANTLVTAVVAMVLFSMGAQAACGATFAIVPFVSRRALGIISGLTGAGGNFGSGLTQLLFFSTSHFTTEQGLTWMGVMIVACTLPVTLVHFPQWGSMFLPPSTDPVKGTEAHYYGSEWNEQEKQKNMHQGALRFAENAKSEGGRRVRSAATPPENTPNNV
Sequence of NRT2.1 S501D, rBiFC fusion (O82811 whole entry S501D, the tested form may be a part): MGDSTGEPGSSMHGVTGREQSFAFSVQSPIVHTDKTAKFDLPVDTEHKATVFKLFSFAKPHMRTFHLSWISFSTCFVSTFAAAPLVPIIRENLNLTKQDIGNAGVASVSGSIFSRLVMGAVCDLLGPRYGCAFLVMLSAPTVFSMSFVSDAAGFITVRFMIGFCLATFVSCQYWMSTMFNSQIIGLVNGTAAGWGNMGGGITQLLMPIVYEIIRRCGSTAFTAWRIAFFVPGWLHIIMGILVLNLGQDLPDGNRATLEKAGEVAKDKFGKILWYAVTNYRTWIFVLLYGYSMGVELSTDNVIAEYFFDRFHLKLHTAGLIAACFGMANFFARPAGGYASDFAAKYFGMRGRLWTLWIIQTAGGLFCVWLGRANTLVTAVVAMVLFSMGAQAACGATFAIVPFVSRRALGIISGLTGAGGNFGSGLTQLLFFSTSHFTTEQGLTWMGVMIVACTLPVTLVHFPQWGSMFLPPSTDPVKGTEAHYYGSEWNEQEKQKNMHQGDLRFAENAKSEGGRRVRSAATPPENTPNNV

B1: NAR2.1, rBiFC fusion (natural protein, Arabidopsis thaliana, UniProt Q9FGS5 23-210, looked up)
chain: AEKVRLFKELDKGALDVTTKPSREGPGVVLDAGKDTLNITWTLSSIGSKREAEFKIIKVKLCYAPPSQVDRPWRKTHDELFKDKTCPHKIIAKPYDKTLQSTTWTLERDIPTGTYFVRAYAVDAIGHEVAYGQSTDDAKKTNLFSVQAISGRHASLDIASICFSVFSVVALVVFFVNEKRKAKIEQSK
YFP fluorescence as percent of RFP fluorescence (rBiFC) [1]: ~50 % of RFP fluorescence | YFP fluorescence as percent of RFP fluorescence (rBiFC) [2]: ~50 % of RFP fluorescence | YFP fluorescence as percent of RFP fluorescence (rBiFC) [3]: ~40 % of RFP fluorescence

Source: paper doi:10.1101/583542 (bioRxiv, 2019)
